The target in test [1] is T1, human IL-17A (human, UniProt Q16552 20-155, limits assumed).
T1 construct: Bought from R&D Systems; also called IL-17 antigen (human IL17A)
T1 sequence (looked up): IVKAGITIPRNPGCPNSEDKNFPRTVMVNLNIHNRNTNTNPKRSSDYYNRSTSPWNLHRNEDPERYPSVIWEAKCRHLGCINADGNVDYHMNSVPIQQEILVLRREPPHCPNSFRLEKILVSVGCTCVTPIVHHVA
As to the kind of experiment: blocking ELISA, IL-17RA coated; control IgG pre-mixed with human IL-17A 0.1 ug/ml; bound IL-17A detected.

For test [2], the target named is T1, human IL-17A. The experiment in a line: blocking ELISA, IL-17RC coated; control IgG pre-mixed with human IL-17A 0.1 ug/ml; bound IL-17A detected.
For test [3], the target named is T1, human IL-17A. As to the kind of experiment: blocking ELISA, IL-17RA coated; control IgG pre-mixed with human IL-17A 0.1 ug/ml; bound IL-17A detected (unblocked signal).
Test [4] addresses T1, human IL-17A. As to the kind of experiment: blocking ELISA, IL-17RC coated; control IgG pre-mixed with human IL-17A 0.1 ug/ml; bound IL-17A detected (unblocked signal).
Test [5] addresses T1, human IL-17A. The experiment in a line: ELISA, human IL-17A coated at 1 ug/mL, anti-human IgG-HRP detection. On the procedure:
ELISA plates were coated with 1 μg/mL IL-17 antigen (human IL17A) (R&D Systems) and incubated at 4° C. in the dark overnight. Then it was washed once with 10 mM, pH 7.4 PBS/Tween (0.05%), blocked with PBST containing 2% BSA for 1 hour and incubated at room temperature for 1 h. The antibodies PP10759-PP10768 were diluted in 5-fold increments for a total of eleven data points and were added to the ELISA wells and incubated at room temperature for 1 hour. The plate was washed with PBS for three times, and then incubated with HRP conjugated goat anti-human IgG antibody for 1 hour. The plate was washed three times with PBS. TMB, the HRP substrate, was added to each well for color development for 5 minutes at room temperature. Equal amount of 0.1N HCl stop solution was added to each well to terminate the reaction. Raw OD₄₅₀ data was collected by POLARstar Omega (BMG Labtech). Besides, hFc isotope was regarded as control. It can be seen that the antibodies (i.e. PP10759-PP10768) bind to human IL-17A with high affinity.

In test [6] the target is T1, human IL-17A. As to the kind of experiment: BLI (Octet Red96), antibody captured on AHC biosensor, human IL-17A in solution, 1:1 model, 25 C. On the procedure:
Using the Octet method (Fortebio Octet®), the chimeric parental antibody and the […] (i.e. PP10759-PP10768) were evaluated with Octet Red96 at 25° C. These antibodies were captured on anti-Human Fc (AHC) biosensors at a concentration of 10 μg/mL. Loaded biosensors were then dipped into a dilution of antigen (human IL-17A (R&D Systems), 500 nM start, 1:3 down, 7 points). Kinetic constants were calculated using a monovalent (1:1) model. In FIG. 2A, Figure I, II, III and IV show the results of PP10759, PP10760, PP10761 and PP10762, respectively. In FIG. 2B, Figure I, II, III and IV show the results of PP10763, PP10764, PP10765 and PP10766, respectively. In FIG. 2B, Figure I and II show the results of PP10767 and PP10768, respectively. It can be seen that the antibodies (i.e. PP10759-PP10768) bind to IL-17A with high affinity. […] Secukinuma is a human IgG1κ monoclonal antibody that binds to IL-17A made by Novartis.

For test [7], the target named is T2, mouse IL-17A (mouse, UniProt Q62386 26-158, limits assumed).
T2 sequence (looked up): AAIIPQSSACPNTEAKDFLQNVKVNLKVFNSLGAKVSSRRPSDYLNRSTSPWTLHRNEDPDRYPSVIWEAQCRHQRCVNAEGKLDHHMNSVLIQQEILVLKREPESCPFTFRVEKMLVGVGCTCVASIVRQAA
The experiment in a line: ELISA, mouse IL-17A coated.

Test [8] concerns the target T1, human IL-17A. The experiment in a line: blocking ELISA, IL-17RC coated; antibody 1 ug/ml pre-mixed with human IL-17A 0.1 ug/ml; bound IL-17A detected. On the procedure: (§1) Recombinant human IL-17RA or recombinant human IL-17RC (1 μg/ml) were coated on the plate, overnight at 4° C. in the dark and then blocked with 2% BSA for 1 hour at room temperature to reduce non-specific binding. The antibodies PP10759-PP10768 (1 μg/ml) pre-mixed with human IL-17A (0.1 μg/ml final concentration) were added to the ELISA wells for 1 hour at room temperature. The plate was washed with PBS for three times, and then incubated with anti-IL17A polyclonal Ab-biotin (R&D Systems) for 1 hour followed by SAV-HRP. The plate was washed for three times with PBS. TMB, the HRP substrate, was added to each well for color development for 5 minutes at room temperature. Equal amount of 0.1N HCl stop solution was added to each well to terminate the reaction. Raw OD₄₅₀ data was collected by POLARstar Omega from BMG Labtech.
(§2) It can be seen that the antibodies PP10759-PP10768 can effectively block the interaction between IL-17A and IL-17RA as well as IL-17A and IL-17RC.

Test [9] addresses T1, human IL-17A. The experiment in a line: blocking ELISA, IL-17RA coated; antibody 1 ug/ml pre-mixed with human IL-17A 0.1 ug/ml; bound IL-17A detected. On the procedure:
as §1, §2

Positions count from the first letter of the chain named.

Normal human IgG (antibody): the Blocking % in test [1] and in test [2] was 0% each time. In addition, the OD450 in [3] was found to be 1.39 OD450; in [4] it was 0.487 OD450.

B1: PP10759 (antibody, human IgG4 S228P, kappa, V domains shown)
VH: EVQLVESGGGLVQPGGSLKLSCVASGFTFSTYGMSWVRQTPDKRLELVAIINHNGGSTFYPDSVKGRFTVSRDNAKNTLHLQMSSLKSEDTAMYYCARDPRHDGYFFDYWGQGTTLTVSS
VL: DIQMTQSSPSFSVSLGDRVTITCKASEDIYDRLAWYQQKPGNAPRLLISGATSLETGIPSRFSGSRSGKDYTLDINSLQTEDAATYYCQQYWSVPWTFGGGTKLEIKR
notes: expressed in HEK293; also called chimeric antibody PP10759; chimeric parental antibody
In test [5], B1 returned an EC50 of 5.83 ng/mL. In test [6], binding was characterised by a dissociation constant (Kd) of 1.1 nM, the koff was determined as 0.00053 s⁻¹ and the kon amounted to 480000 M⁻¹ s⁻¹. The binding result in [7] is listed as “no binding”. For the same molecule, in [8], the Blocking % came out at 95.2% and the OD450 is 0.0888 OD450. In [9], the Blocking % came to 99.5% and the OD450 was 0.0872 OD450.

B2: PP10761 (antibody, human IgG4 S228P, kappa, V domains shown)
VH: EVQLVESGGGLVQPGGSLRLSCAASGFTFSTYGMSWVRQAPGKGLELVSIINHNGGSTFYPDSVKGRFTISRDNSKNTLYLQMNSLRAEDTAVYYCARDPRHDGYFFDYWGQGTLVTVSS
VL: DIQMTQSPSSLSASVGDRVTITCQASEDIYDRLAWYQQKPGKAPKLLISGATSLETGVPSRFSGSGSGKDYTFTISSLQPEDIATYYCQQYWSVPWTFGGGTKVEIKR
notes: Humanized, human IgG4/kappa; also called VH6665/VL6666
Turning to B2, the concentration for a half-maximal effect (EC50) in [5] was found to be 8.72 ng/mL. In [6], the Kd is under 0.001 nM, the koff was under 1e-07 s⁻¹ and the on-rate (kon) was found to be 400000 M⁻¹ s⁻¹. The binding result in test [7] is given as “no binding”. In test [8], this molecule returned a Blocking % of 99.8% and an OD450 of 0.0688 OD450. Moreover, in test [9], the Blocking % turned out to be 99.7% and the OD450 is 0.0851 OD450.

B3: PP10766 (antibody, human IgG4 S228P, kappa, V domains shown)
VH: B2 VH with L11V, G16R, S49A
VL: B2 VL with K69T
notes: Humanized, human IgG4/kappa; also called VH6667/VL6665
In test [5], B3 displayed an EC50 of 7.35 ng/mL. In test [6], this molecule returned a Kd of under 0.001 nM, a koff of under 1e-07 s⁻¹ and a kon of 350000 M⁻¹ s⁻¹. Also, the binding result in test [7] is given as “no binding”. In [8], this molecule gave a Blocking % of 100% and an OD450 of 0.0682 OD450. In [9], this molecule came in with a Blocking % of 94.9% and an OD450 of 0.147 OD450.

B4: PP10764 (antibody, human IgG4 S228P, kappa, V domains shown)
VH: B2 VH with S49A, I70V
VL: B2 VL
notes: Humanized, human IgG4/kappa; also called VH6666/VL6666
As to B4, the concentration giving a half-maximal response (EC50) in [5] is 6.61 ng/mL. In [6], this molecule registered a Kd of under 0.001 nM, a koff of under 1e-07 s⁻¹ and an on-rate (kon) of 450000 M⁻¹ s⁻¹. The binding result in test [7] was “no binding”. For the same molecule, in test [8], the Blocking % amounted to 98.9% and the OD450 amounted to 0.0725 OD450. In test [9], this molecule came in with a Blocking % of 96.5% and an OD450 of 0.126 OD450.

B5: PP10768 (antibody, human IgG4 S228P, kappa, V domains shown)
VH: B2 VH with L11V, G16R, S49A
VL: B2 VL with Q24R, K45N, I48V, T56S, F73L, I83F
notes: Humanized, human IgG4/kappa; also called VH6667/VL6667
Regarding B5, it took 7.67 ng/mL to reach a half-maximal effect in test [5] (EC50). Also, in test [6], the Kd is under 0.001 nM, the koff was under 1e-07 s⁻¹ and the kon was determined as 370000 M⁻¹ s⁻¹. Further, the binding result in test [7] is “no binding”. In test [8], this molecule gave a Blocking % of 99.9% and an OD450 of 0.0685 OD450. In test [9], the Blocking % was 99.5% and the OD450 turned out to be 0.0869 OD450.

B6: PP10763 (antibody, human IgG4 S228P, kappa, V domains shown)
VH: B2 VH with S49A, I70V
VL: B2 VL with K69T
notes: Humanized, human IgG4/kappa; also called VH6666/VL6665
In the case of B6, in [5], the midpoint of the response, the EC50, lay at 7.28 ng/mL. In test [6], this molecule displayed a Kd of 0.36 nM, a koff of 0.00016 s⁻¹ and a kon of 460000 M⁻¹ s⁻¹. Further, the binding result in test [7] is reported as “no binding”. In test [8], this molecule registered a Blocking % of 98.9% and an OD450 of 0.0721 OD450. In test [9], this molecule came in with a Blocking % of 90.9% and an OD450 of 0.104 OD450.

B7: PP10760 (antibody, human IgG4 S228P, kappa, V domains shown)
VH: B2 VH
VL: B2 VL with K69T
notes: Humanized, human IgG4/kappa; also called VH6665/VL6665
Take B7: in test [5], the EC50 was 9.44 ng/mL. In test [6], this molecule showed a Kd of 0.31 nM, a koff of 0.00015 s⁻¹ and an on-rate (kon) of 490000 M⁻¹ s⁻¹. Further, the binding result in [7] is on record as “no binding”. In addition, in test [8], the Blocking % stood at 98% and the OD450 was 0.0762 OD450. In addition, in [9], the Blocking % was found to be 97.8% and the OD450 was found to be 0.109 OD450.

B8: PP10765 (antibody, human IgG4 S228P, kappa, V domains shown)
VH: B2 VH with S49A, I70V
VL: B2 VL with Q24R, K45N, I48V, T56S, F73L, I83F
notes: Humanized, human IgG4/kappa; also called VH6666/VL6667
B8: the midpoint of the response in test [5], the EC50, lay at 7.61 ng/mL. Besides, in test [6], the Kd amounted to 0.13 nM, the koff is 6.6e-05 s⁻¹ and the kon was 500000 M⁻¹ s⁻¹. Further, the binding result in test [7] was “no binding”. In test [8], this molecule came in with a Blocking % of 95.2% and an OD450 of 0.088 OD450. In [9], this molecule gave a Blocking % of 89.9% and an OD450 of 0.213 OD450.

B9: PP10762 (antibody, human IgG4 S228P, kappa, V domains shown)
VH: B2 VH
VL: B2 VL with Q24R, K45N, I48V, T56S, F73L, I83F
notes: Humanized, human IgG4/kappa; also called VH6665/VL6667
B9 registered an EC50 in test [5] of 8.26 ng/mL. In test [6], this molecule yielded a Kd of under 0.001 nM, a koff of under 1e-07 s⁻¹ and a kon of 440000 M⁻¹ s⁻¹. Moreover, the binding result in test [7] is on record as “no binding”. In test [8], the Blocking % is 99.5% and the OD450 is 0.0701 OD450. For the same molecule, in [9], the Blocking % came to 99.6% and the OD450 turned out to be 0.0846 OD450.

B10: PP10767 (antibody, human IgG4 S228P, kappa, V domains shown)
VH: B2 VH with L11V, G16R, S49A
VL: B2 VL
notes: Humanized, human IgG4/kappa; also called VH6667/VL6666
On to B10, for which the concentration giving a half-maximal response (EC50) in test [5] turned out to be 7.71 ng/mL. In test [6], this molecule displayed an equilibrium dissociation constant (Kd) of under 0.001 nM, a koff of under 1e-07 s⁻¹ and a kon of 360000 M⁻¹ s⁻¹. In addition, the binding result in test [7] is recorded as “no binding”. Moreover, in test [8], the Blocking % was determined as 99.9% and the OD450 came out at 0.0684 OD450. In test [9], the Blocking % worked out at 98.1% and the OD450 turned out to be 0.105 OD450.

The record behind these values is patent publication US20210309735A1 (published 2021).
